Measured values: paper PMC2820081

Biological target: endogenous optineurin (rat (endogenous in RGC5)) (UniProt Q8R5M4)
Experiment: native gel or EMSA; native blue gel electrophoresis (NativePAGE Novex Bis-Tris gel) of lysates in IP buffer from RGC5 cells or RGC5 cells transfected with pTarget-FLAG-OPTN, non-reducing; Western blot with anti-C-terminal optineurin or anti-FLAG

stoichiometry N: 6
Substance: endogenous optineurin (from UniProt Q8R5M4 1-585) (natural protein)
